Tested on: human colon cancer cell line LS174T
Details: mouse, in vivo

“Rtx-TCO: TCO-modified rituximab for control in vivo experiments; lacks specificity for TAG72” gave a 125I-mAb in tumor of 6.3±1.2 % ID/g.

— patent US20120034161A1, “PRETARGETING KIT, METHOD AND AGENTS USED THEREIN” (KONINKLIJKE PHILIPS ELECTRONICS N.V., priority 2009, published 2012)
